Molecular target: human glucose‐regulated protein 78 (hGRP78), full-length (human, UniProt P11021 19-654)
Assay: SPR

Chain of human glucose‐regulated protein 78 (hGRP78), full-length (P11021 19-654): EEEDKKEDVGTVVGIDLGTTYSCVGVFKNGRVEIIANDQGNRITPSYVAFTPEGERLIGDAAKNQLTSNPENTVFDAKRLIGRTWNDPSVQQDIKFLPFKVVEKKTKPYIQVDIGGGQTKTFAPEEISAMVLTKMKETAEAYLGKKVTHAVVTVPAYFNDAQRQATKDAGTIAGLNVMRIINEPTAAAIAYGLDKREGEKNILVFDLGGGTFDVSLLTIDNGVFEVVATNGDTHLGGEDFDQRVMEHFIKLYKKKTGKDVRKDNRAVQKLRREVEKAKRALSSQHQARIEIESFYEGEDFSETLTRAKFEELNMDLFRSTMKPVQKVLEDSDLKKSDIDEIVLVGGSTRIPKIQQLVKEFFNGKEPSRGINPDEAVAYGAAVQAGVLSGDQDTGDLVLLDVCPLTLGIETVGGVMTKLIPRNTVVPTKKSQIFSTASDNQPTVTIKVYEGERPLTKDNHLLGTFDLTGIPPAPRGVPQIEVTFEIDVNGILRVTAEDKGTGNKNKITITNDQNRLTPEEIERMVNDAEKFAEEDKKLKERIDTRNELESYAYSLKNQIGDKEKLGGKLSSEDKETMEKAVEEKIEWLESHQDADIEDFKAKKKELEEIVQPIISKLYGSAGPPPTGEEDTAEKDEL

B1: Nb NBD1 (VHH)
VHH: AVQLVESGGGSVQAGGSLTLSCAASINTGNPALVGWYRQAPGKQREMVAMISISGNTNYAPSVKGRFTISRDNANKTIFLQMNSLTPEDTAVYYCKKLPFGSWGQGTQVTVSS
  koff: 0.000575 s⁻¹
